Assay results from publication PMC12715529, “Functional D- and L‑Naphthalenediimide-Peptides: Microwave-Driven Synthesis, Supramolecular Aggregation, and Multiphoton Fluorescence Lifetime Imaging Microscopy in Living Cells” (ACS Bio & Med Chem Au, 2025).

Columns and labels:
[1] = Two-photon TCSPC point decays in solution (aggregation behaviour); type: physicochemical; conditions: for a1 (amplitude of τ1) / a2 (amplitude of τ2) / τ2 (long-lifetime component) / τ1 (short-lifetime component): two-photon TCSPC 910 nm
Source text: Prior to the cellular studies by FLIM, lifetime distribution decays of probes 3 (both enantiomers), 4 (both enantiomers), and L -6 were studied by TCSPC in different concentrations and solvent systems. […] The main fluorescence lifetime parameters obtained by TCSPC in the solution phase are summarized in Table , and further details are given in Figures S105–S133 and Tables S2–S4. The goodness of fit of the data points obtained is represented by the Chi–square parameter, χ^2; τ1 is the short-lifetime component; τ2 is the long-lifetime component; and the parameters a1 and a2 represent the amplitude of the components.

PC-3 cells = conditions: 48 h
Method: After splitting the cells, cells (3 × 10^3 cells per well) were seeded on a sterile 96-well plate and incubated for 48 h to let the cells adhere to the plates. The compound of interest was subsequently loaded at different concentrations into the wells and incubated for a further 48 h. The concentrations used ranged between 250 μM or 0.01 mg/mL and 1 nM or 1 ng/mL (1% DMSO with compound, 99% RPMI (10% FCS) for PC-3. Subsequently, the medium from the plates was carefully aspirated so as not to disturb the colonies, and the plates were gently washed with PBS. Next, a mixture of methanol/PBS (1:1) was added in a sufficient volume to cover the colonies, and it was left for 15 min. After this time, it was removed, and 100% methanol was added for a further 15 min. The methanol was then removed, and 0.5% crystal violet solution (in 20% methanol and 80% water) was added and left to allow sufficient staining. The crystal violet solution was removed by carefully rinsing the cell plates with an indirect flow of tap water. The plates were inverted and left on the bench at room temperature to dry the water. Methanol (200 μL) was added to each well, and the plate was incubated with its lid on for 20 min at room temperature on a bench rocker with a frequency of 20 oscillations per minute. The 96-well plates were then read with an ELISA plate reader, Molecular Devices Versa Max (BN02877). […]

[2] = tested on: cancerous cell lines (PC-3); assay: MTT and crystal violet cell viability assays; type: cell-based; conditions: at concentrations used for imaging, over 72 h of observations
Method: (§1) Subsequently, cells were washed three times with PBS, and 3-(4,5-dimethylthiazol-2-yl)-2,5- diphenyltetrazolium bromide (MTT) was added (0.5 mg/mL in serum-free medium (SFM)), followed by a 2 h incubation. After aspiration to remove the serum-free medium, 100 μL of DMSO was added to solubilize the precipitated formazan species, and 96-well plates were read by an ELISA plate reader, Molecular Devices Versa Max (BN02877). The absorption wavelength was 570 nm, and a 690 nm wavelength was used as a reference.

[3] = MTT and crystal violet cell viability assays; type: cell-based; conditions: human, PC-3 cells, MTT and crystal violet assays, up to 72 h observation, read-out: IC50 (cytotoxicity)
Method: as §1

[4] = target: T1, GRP receptors in PC-3 cells (Homo sapiens, UniProt P30550); assay: Blocking experiment with L-[7–13]BBN, confocal imaging; type: cell-based; conditions: PC-3 pre-incubated with 1 mM L-[7–13]BBN, 37 °C, 20 min, washed, then conjugate 20 min
T1 construct: This also supports the targeted uptake directed by the GRP receptors in PC-3 cells; endogenous in cells; host or cells: PC-3 cells (ATCC)
Method: Compound L -6 emits in the green and red channels (500–550 and 570–750 nm, respectively) when excited at 488 nm. […] In addition, the fluorescence emissions in vitro are stronger than the observed fluorescence emission in solution. […] This also supports the targeted uptake directed by the GRP receptors in PC-3 cells interplayed with BODIPY-driven cellular localization. To further probe this observation, a blocking experiment by confocal imaging was conducted (Figures S103–S104), whereby PC-3 cells were first incubated in the presence of a high concentration of L-[7–13]-BBN (1 mM) at 37 °C for 20 min. This peptide is only weakly fluorescent, and on this time scale (and up to 18 h of incubation time), confocal imaging cannot show distinguishable emission, to describe the uptake for L-[7,13]-BBN alone by this method (Figure S87). After the standard 20 min pretreatment time, the cells were washed with PBS and then the serum-free medium (SFM) was replaced. […] In the case of L-6, the observed maximum fluorescence intensity is distributed over the exterior of the cell, with points of aggregation visible around the membrane. […]
Figure S103. […] (D) A comparison of the mean fluorescence intensity estimated from confocal imaging experiments of the standard blocking assays in living PC-3 cells (Figure S103), under 20 min incubation, 37 °C, ex 488 nm. […]

[5] = FE-SEM and Airyscan confocal imaging of dried films (aggregation morphology); type: physicochemical; conditions: dried powder or freeze-dried 1 mg/mL MeCN/H2O (1:1) or DMSO solutions
Method: To further investigate the aggregation behavior, we examined the surface morphologies of the isolated conjugates in the solid state at the micrometer scale using field emission scanning electron microscopy (FE-SEM). This analysis aimed to determine whether the aggregation properties of these peptide-based compounds influence their fluorescence emission. The FE SEM micrographs of the D- and L-enantiomers of 3 and 4 were recorded from dried powder after purification or after freeze-drying of 1 mg/mL solutions deposited in either MeCN/H2O (1:1) or DMSO solutions. […] Confocal laser scanning fluorescence microscopy was performed for the thin films deposited on glass-bottomed borosilicate slides using imaging Petri dishes. Micrographs were acquired using Airyscan detection for L -3 (a1–e1), L -4 (a2–e2), D -3 (a3–e3), D -4 (a4–d4), and L -6 (a5–d5) where these images were recorded following overnight freeze-drying of films deposited from DMSO (Figures and S67). […] This is consistent with our observations from solution excitation–emission maps (Figures and S57–S63) and further points to the overall ability of these aggregates to show fluorescence emission due to possible stacking and excited-state electron and energy dynamics. […] Specifically, emission was detected in the blue (λem = 420–480 nm), green (λem = 495–550 nm), and red (λem = 555–620 nm) channels. […]

[6] = DMSO, 0.01 mM, double-exponential fit, aggregation indicator

T1 sequence (P30550 whole entry): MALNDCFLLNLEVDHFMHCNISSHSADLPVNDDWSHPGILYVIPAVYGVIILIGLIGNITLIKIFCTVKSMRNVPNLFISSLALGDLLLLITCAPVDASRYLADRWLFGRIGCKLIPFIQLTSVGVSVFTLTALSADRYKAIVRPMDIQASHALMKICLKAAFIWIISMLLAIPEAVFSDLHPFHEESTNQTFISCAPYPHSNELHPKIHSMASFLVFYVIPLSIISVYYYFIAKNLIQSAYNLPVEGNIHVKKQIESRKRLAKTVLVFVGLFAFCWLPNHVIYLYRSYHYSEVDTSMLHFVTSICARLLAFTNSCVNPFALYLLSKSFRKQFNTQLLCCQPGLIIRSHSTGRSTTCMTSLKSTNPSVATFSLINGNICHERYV

Row | Compound | a1 (amplitude of τ1) ([1]; DMSO, 0.01 mM) [%] | a2 (amplitude of τ2) ([1]; DMSO, 0.01 mM) [%] | τ2 (long-lifetime component) ([1]; DMSO, 0.01 mM) [ns] | τ1 (short-lifetime component) [1, 6] [ns] | a1 (amplitude of τ1) ([1]; DMSO, 0.1 mM) [%] | a2 (amplitude of τ2) ([1]; DMSO, 0.1 mM) [%] | τ1 (short-lifetime component) ([1]; DMSO, 0.1 mM) [ns] | a1 (amplitude of τ1) ([1]; DMSO, 1 mM) [%] | a2 (amplitude of τ2) ([1]; DMSO, 1 mM) [%] | τ1 (short-lifetime component) ([1]; DMSO, 1 mM) [ns] | τ2 (long-lifetime component) ([1]; DMSO, 1 mM) [ns] | a1 (amplitude of τ1) ([1]; DMSO/H2O (1:1), 0.025 mM) [%] | a2 (amplitude of τ2) ([1]; DMSO/H2O (1:1), 0.025 mM) [%] | τ1 (short-lifetime component) ([1]; DMSO/H2O (1:1), 0.025 mM) [ns] | a1 (amplitude of τ1) ([1]; DMSO/H2O (1:1), 2.5 mM) [%] | a2 (amplitude of τ2) ([1]; DMSO/H2O (1:1), 2.5 mM) [%] | τ1 (short-lifetime component) ([1]; DMSO/H2O (1:1), 2.5 mM) [ns] | τ2 (long-lifetime component) ([1]; DMSO/H2O (1:1), 2.5 mM) [ns] | cytotoxicity in words [2] | IC50 at 48 h [3] [µM] | other results
1 | CC(C)C[C@H](NC(=O)[C@H](Cc1c[nH]cn1)NC(=O)CNC(=O)[C@@H](NC(=O)[C@H](C)NC(=O)[C@H](Cc1c[nH]c2ccccc12)NC(=O)[C@H](CCC(N)=O)NC(=O)[C@H](Cc1ccc(I)cc1)N1C(=O)c2ccc3c4c(ccc(c24)C1=O)C(=O)N([C@@H](Cc1ccc(I)cc1)C(=O)ON1C(=O)CCC1=O)C3=O)C(C)C)C(N)=O [L-3] | 62 | 38 | 7.35 | 0.84 | 62 | 38 | 0.57 | 63 | 37 | 0.38 | 2.54 | 82 | 18 | 0.37 | 77 | 23 | 0.31 | 3.45 | nontoxic | > 100 | τ2 (long-lifetime component) ([1]; DMSO/H2O (1:1), 0.025 mM): 10.01 ns; a1 (amplitude of τ1) ([1]; DMSO/H2O (1:1), 0.25 mM): 81%; a2 (amplitude of τ2) ([1]; DMSO/H2O (1:1), 0.25 mM): 19%; τ1 (short-lifetime component) ([1]; DMSO/H2O (1:1), 0.25 mM): 0.38 ns; τ2 (long-lifetime component) ([1]; DMSO/H2O (1:1), 0.25 mM): 9.87 ns; IC50 (PC-3 cells): > 100 µM
2 | CC1=CC(C)=[N+]2C1=C(c1ccc(C(=O)NCCN3C(=O)c4ccc5c6c(ccc(c46)C3=O)C(=O)N([C@@H](CCC(N)=O)C(=O)N[C@@H](Cc3c[nH]c4ccccc34)C(=O)N[C@@H](C)C(=O)N[C@H](C(=O)NCC(=O)N[C@@H](Cc3c[nH]cn3)C(=O)N[C@@H](CC(C)C)C(N)=O)C(C)C)C5=O)cc1)c1c(C)cc(C)n1[B-]2(F)F [L-6] | 68 | 32 | 3.34 | 0.14 | 80 | 20 | 0.14 | 66 | 34 | 0.14 | 1.67 | – | – | – | 65 | 35 | 0.15 | 2.25 | nontoxic | > 100 | τ2 (long-lifetime component) ([1]; DMSO, 0.1 mM): 2.64 ns; τ1 relative to BODIPY-linker precursor 5 ([1]; TCSPC in solution, assigned to self-aggregation): 10 fold lower; τ1 (approximate) ([1]; both DMSO and DMSO/H2O solutions, TCSPC): ~0.1 ns; uptake after pre-blocking with L-[7–13]BBN [4]: significant decrease of the uptake efficiency in pretreated cells; uptake after pre-blocking with L-[7–13]BBN ([4]; listed as L -6): significantly lesser extent than in the nonblocked experiment
3 | CC(C)C[C@H](NC(=O)[C@H](Cc1c[nH]cn1)NC(=O)CNC(=O)[C@@H](NC(=O)[C@H](C)NC(=O)[C@H](Cc1c[nH]c2ccccc12)NC(=O)[C@H](CCC(N)=O)NC(=O)[C@H](Cc1ccc(I)cc1)N1C(=O)c2ccc3c4c(ccc(c24)C1=O)C(=O)N([C@@H](Cc1ccc(I)cc1)C(=O)N[C@@H](CCC(N)=O)C(=O)N[C@@H](Cc1c[nH]c2ccccc12)C(=O)N[C@@H](C)C(=O)N[C@H](C(=O)NCC(=O)N[C@@H](Cc1c[nH]cn1)C(=O)N[C@@H](CC(C)C)C(N)=O)C(C)C)C3=O)C(C)C)C(N)=O [L-4] | 75 | 25 | 4.76 | 0.51 | 79 | 21 | 0.49 | 77 | 23 | 0.48 | 4.29 | 84 | 16 | 0.48 | 86 | 14 | 0.26 | 4.97 | nontoxic | > 100 | τ2 (long-lifetime component) ([1]; DMSO, 0.1 mM): 5.45 ns; τ2 (long-lifetime component) ([1]; DMSO/H2O (1:1), 0.025 mM): 9.57 ns; a1 (amplitude of τ1) ([1]; DMSO/H2O (1:1), 0.25 mM): 83%; a2 (amplitude of τ2) ([1]; DMSO/H2O (1:1), 0.25 mM): 17%; τ1 (short-lifetime component) ([1]; DMSO/H2O (1:1), 0.25 mM): 0.40 ns; τ2 (long-lifetime component) ([1]; DMSO/H2O (1:1), 0.25 mM): 3.12 ns; IC50 (PC-3 cells): > 100 µM; aggregate morphology [5]: granular and globular morphology
